Measured values from patent publication US20140205597A1 (published 2014).

B1: SEQ ID NO 85 (VHH)
VHH: EVQLVESGGGSVQPGGSLRLSCAASRSIGRLDRMGWYRHRPGEPRELVATITGGSSINYGDSVKGRFTISIDNSKNTVYLQMNSLRPEDTAVYYCNFNKYVTSRDTWGQGTLVQVGG
notes: L11S, T110Q, S112G, S113G
B2: SEQ ID NO 74 (VHH)
VHH: EVQLVESGGGLVQPGGSLRLSCAASRSIGRLDRMGWYRHRPGEPRELVATITGGSSINYGDSVKGRFTISIDNSKNTVYLQMNSLRPEDTAVYYCNFNKYVTSRDTWGQGTLVTVSS
notes: C-terminal: G
B3: SEQ ID NO 75 (VHH)
VHH: EVQLVESGGGLVQPGGSLRLSCAASRSIGRLDRMGWYRHRPGEPRELVATITGGSSINYGDSVKGRFTISIDNSKNTVYLQMNSLRPEDTAVYYCNFNKYVTSRDTWGQGTLVTVSS
notes: C-terminal: AA
B4: SEQ ID NO 87 (VHH)
VHH: EVQLVESGGGSVQPGGSLRLSCAASRSIGRLDRMGWYRHRPGEPRELVATITGGSSINYGDSVKGRFTISIDNSKNTVYLQMNSLRPEDTAVYYCNFNKYVTSRDTWGQGTLVTVGG
notes: L11S, S112G, S113G
B5: SEQ ID NO 73 (VHH)
VHH: EVQLVESGGGLVQPGGSLRLSCAASRSIGRLDRMGWYRHRPGEPRELVATITGGSSINYGDSVKGRFTISIDNSKNTVYLQMNSLRPEDTAVYYCNFNKYVTSRDTWGQGTLVTVGG
notes: C-terminal: G; S112G, S113G
B6: SEQ ID NO 77 (VHH)
VHH: EVQLVESGGGLVQPGGSLRLSCAASRSIGRLDRMGWYRHRPGEPRELVATITGGSSINYGDSVKGRFTISIDNSKNTVYLQMNSLRPEDTAVYYCNFNKYVTSRDTWGQGTLVTVSS
notes: C-terminal: A
B7: SEQ ID NO 89 (VHH)
VHH: EVQLVESGGGSVQAGGSLRLSCAASRSIGRLDRMGWYRHRPGEPRELVATITGGSSINYGDSVKGRFTISIDNSKNTVYLQMNSLRPEDTAVYYCNFNKYVTSRDTWGQGTLVQVGG
notes: L11S, P14A, T110Q, S112G, S113G
B8: SEQ ID NO 88 (VHH)
VHH: EVQLVESGGGSVQPGGSLRLSCAASRSIGRLDRMGWYRHRPGEPRELVATITGGSSINYGDSVKGRFTISIDNSKNTVYLQMNSLRPEDTAVYYCNFNKYVTSRDTWGQGTLVQVSS
notes: C-terminal: A; L11S, T110Q
B9: SEQ ID NO 86 (VHH)
VHH: EVQLVESGGGSVQPGGSLRLSCAASRSIGRLDRMGWYRHRPGEPRELVATITGGSSINYGDSVKGRFTISIDNSKNTVYLQMNSLRPEDTAVYYCNFNKYVTSRDTWGQGTLVQVSS
notes: L11S, T110Q

Columns and labels:
[1] = target: T1, monoclonal antibody 21-4-3; assay: Biacore, captured 21-4-3
T1 construct: mouse IgG1 heavy chain, kappa light chain; also called mAb21-4-3; produced by hybridoma ABH0015 (LMBP-9680-CB)
Experimental: Binding measurements were performed using a Biacore T100 using a CM5 T120416 sensor chip, with running buffer HBS-EP+, 25° C. […] The anti-mouse IgG used was a polyclonal rabbit anti-mouse IgG antibodies reacting with all IgG subclasses, IgA and IgM (GE Healthcare; Cat#BR-1008-38; Lot#10056316). Immobilisation of the anti-mouse IgG was performed using manual amine coupling using a 7 minute injection of EDC/NHS for activation and a 7 minute injection of 1M ethanolamine HCl pH 8.5 for deactivation (Biacore, amine coupling kit).

[2] = target: T2, purified interference factor(s) from serum of Donor C; assay: Biacore, immobilized interference factor
T2 construct: text names Donors 8, 19 and 30

[3] = target: T3, purified interference factor(s) from serum of Donor B; assay: Biacore, immobilized interference factor
T3 construct: text names Donors 8, 19 and 30

[4] = target: T4, purified interference factor(s) from serum of Donor A; assay: Biacore, immobilized interference factor
T4 construct: text names Donors 8, 19 and 30

Row | Binder | binding vs Reference Sequence (=100%) [1] | binding vs Reference Sequence (=100%) [2] | binding vs Reference Sequence (=100%) [3] | binding vs Reference Sequence (=100%) [4]
1 | B1 | 32% | 42% | 5% | 46%
2 | B2 | 1% | 33% | 41% | 4%
3 | B3 | 1% | 16% | 11% | 1%
4 | B4 | 41% | 39% | 5% | 51%
5 | B5 | 1% | 9% | 8% | 6%
6 | B6 | 1% | 13% | 12% | 2%
7 | B7 | 2% | 17% | 5% | 14%
8 | B8 | 1% | 11% | 5% | 1%
9 | B9 | 64% | 86% | 6% | 76%
